Test: yeast display, Sf9 membrane polyspecificity reagent, FACS + sequencing; frameworks hold sequencing errors
Summary of the method: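 Galactose induction of a Saccharomyces cerevisiae BJ5465 synthetic nanobody display library ran 36–48 hours. The cells were then stained for 1 hour at 4 °C with 10% biotinylated, detergent-solubilized Sf9 membrane reagent, pulled down on streptavidin microbeads and FACS-sorted into low and high (top ~1%) gates on expression and reagent-binding fluorescence. Labels for polyreactivity follow the gate of origin.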

| Sequence | polyreactivity (PSR sort gate) |
| --- | --- |
| QVQLVESGGGLVQAGGTLRLTCAASGRTFYRYVMGWYRHAPVKERELFAAINWSGGSTYYADSVKGRFTISRDNAKNTVYLQMNSLKPEDTAVYYCAADLYTLRYGYRYEYWGQGTQVTVSS | high polyreactivity |
| QVQLVESGGGLVQAGGSLRLSCAASGRIFVTYAMGWYRQAPGTERELVAAINSSVSSTRYADSVKGRFTMSRDNAKNTVYLQMNSLKPEDTAVYYCAAVYRYVRPIAKDEYWGQGTQVTVSS | low polyreactivity |
| QVQLVESGGGLVQAGGSLRLICAASGSIFYIYAMGWYRQAPGKERELVAVIDNSGSTNYADSVKGRFTISRDNAKNTVYLLINSLKPEDTADYYCLKLWLWASYLYDYWGQGTQVTVSS | low polyreactivity |
| QVQLVESGGGLVQAGGSLRLSCAASGRIFSRNAMGWYRQAPGKERELVAGISARGGRTYYADSVKGRFTNSRDNAKNTVYLQMNSLKPEDTAVYYCAASFSAIRGGVRVTIDYYWGQGTQVTVSS | high polyreactivity |
| QVQLVESGGGLVQAGGSLRLTCAASGRILLVNAMGWSRQAPGKERELVAAITSGGSTNYADSVKGRFTISRDNAKNTVYFQMNSLKPEDTAVYFCAATITLYRSRGRYGYWGQGTQVTASS | high polyreactivity |
| QVQLVESGGGLVQAGGSLRLSCAASGLTFRAYVMGWYRQAPWKERELVAAISVSGGSTYYADSVKGRFTISRDNAKNKVYLQLNSLKPEDTAVYYFAAAYSSSKSSGNYYYWGLGTQVTVSS | high polyreactivity |
| QVQLVESGGGLVQAGGSLRLSCAASGSIFVYNTMAWYRPAPVKERELVAAISSSGGSTYYADSVKGRFTISRDNAKNTVYLQMNSLKPEDTAVYYCAKGPLYSLFFQLDAPYRYGYWGQGTQVTVSS | low polyreactivity |
| QVQLVESGGGLVQAGGSLRLSCAASGITFRKYFMGWYRQAPGKERELVATITRNGGTTNYADSVKGRFTISRDNAKNTVYLQMNSLKPEDTAVYYCAAPGPGYIYLGFDYWGQGTQVTVSS | high polyreactivity |
| QVQLEESGGGLVQAGGSLRLSCAASGRIFQRNAMGWYRQAPGKEREFVAAITKSGGGTYADSVKGRFTISRDNAKNTVYLQMNSLKAEDTAVYYCNVVPVWRPYSLINWQKDFGYWGQGTQVTVSS | high polyreactivity |
| QVQLVESGGGLVQAGGSLRLSCYASGRTFAGYVMGWYRQAHGKERELVAAINASGGSTYYADSVKGRFTISRDNAKNTVYLQMNSLKPEDTAVYYCAAARLGSDITRRYYYWGQGTQVTVSS | high polyreactivity |
| QVQLVESRGGLVQAGGSLRLSCAASGFTIDTYAMGWYRQAPGKERELVAGISWSGGSTYYADSVKGRFTISRDNAKNTVYLQMNSLKPEDTAVYYCNARDYSVGRYDYWGQGTQVTVSS | low polyreactivity |
| QVQLVESGGGLVQAVGSLRLSCAASGSTFKRNAMGWYRQAPGKERELVAAITSGGSTYYADSVKGRFTISRDNAKNTVYLQMNSLKPEVTAVYYCNKVPYLKLKMDYWGQGTQVTVSS | high polyreactivity |
| QVQLVESGGGLVQAGGSLRLSCAASGRIFGANAMGWYRQAPGKERELVAAIDDGVSTNYADSVKGRFTISRDNAKNTVYLQMNSLKPEDTAVYYCAKRSFVGGRGRDSDYWGQGTQVTVSS | low polyreactivity |
| QVQLVESGGGLVQAGGSLRLSCAASGRIFVFYAMGWYRQAPGKERELVASITLTDGSTYYADSEKGRFTISRDNAKNTVYLQMNSLKPEDTAVYYCAARISGGSTFRYQRMYYWGQGTQVTVSS | low polyreactivity |
| QVQLVESGGGLVQAGGSLRLSCAASGRTFYSYVMGWSRQAPGKERELVAAISQSGGNTYYADSVKGRFTISRDNAKNTVYLQMNSLKPEDTAVYYCAAGGVLTSWFGQEYEYYYWGQGTQVTVSS | high polyreactivity |
| QVQLVESGGGLVQAGGSLRLSCAASGSTIRQNAMGWSSQAPGKEMELVAAITYTGGSTYYADSVKGRYTISRDNAKNTVYLEMNSLKPEDTSVYYCAATYLSYYHGWVNYWGEGTQVTVSS | high polyreactivity |

| Sequence | polyreactivity (PSR sort gate) |
| --- | --- |
| QVQLVESGGGLVQAGGSLRLSCAASGFIFTGNAMGWYRQAPGKERELVAAITGRGSTYYADSVKGRFTISRDNAKNTVYLQMNSLKPEDTAVYYCAAKRWWQYYWGQGTQVTVSS | high polyreactivity |
| QVQLVESGGGLVQAGGSLRLSSAASGSIFLLYAKGWDRQAPGKERELVAAISRSGDSTHYADSVKGRFTISRDNAKNTVYLQMNSLQPEDTAVYYCAADGYDPYGGLYAYWGHGTQVTVSS | low polyreactivity |
| QVQLVESGGGLVQAGGSLRLSCAASGFTFDFYVMGWYRQAPGKERELVAAISWDGGTTYYADSVKGRFTISRDNAKNTVYLQMNSLKPEDTAVYYCAADDWVYVPTGAWYLYEYWGQGTQVTVSS | high polyreactivity |
| QVQLVESGGGLVQAGGSLRLSCAASGRIFYFYAMGWYRQAPGKERELVASISSGGITNYADSVKGRFTISRDNAKNTVYLQMNSLKPEDTAVYYCAADYGYYSRLYYWGQGTQVTVSS | low polyreactivity |
| QVQLVESGGGLVQAGGSLRLSCAASGRTLGTNAMGWYRQAPGKERELVAAITRNGGSTYYADSVKGRFTISRDNAKNTVYLQMNSLKPEDTAVYYCAARYFHSVGGWPVSYRYNYWGQGTQVTVSS | high polyreactivity |
| QLQLEESGGGLVQAGGSLRLSCAASRRIIVGYAKGRYRQAPGKEREFVAAITFRGGTTYYADSVKGRLTISRDNAKNTVYLQMNSLNQEDSAVYYCAVPHYLYSVEFGYWGQGTQVTVSS | low polyreactivity |
| QVQLVESGGGLVQAGGSLRLSCAASGPIFVHNAKGWYRQAPGTERELVAAISWRATRTYYADSVKGRFTISRDNAKNTVYLQMNSLKPEDTAVYYCAAVTPAYSTSTSSYDYWGQGTQVTVSS | high polyreactivity |
| QVQLVESVGGLVQAGGRLRLSCAASGFIFYEYAMGWYRQAPGKERELDPAITSGGSTDYADSVKGLFTISRDNAKNTVYLQMNSLKPEDTAVYYCNADLFTGYYWYNYCGQGTQVTVSS | low polyreactivity |
| QVQLVESGGGLVQAGGSLRLSCAASGLIFGDYVMGWYRQAPGKERELVAAISNNGDSTYYADSVKGRFTISRDNAKNTVYLQMNSLIPEDTAVYYCNADGDRGGYVLTEHDSWGQGTQVTVSS | low polyreactivity |
| QVQLVESGGGLVQAGGSLRLSCAASGYTFQHYAMGWYRQAPGKERELVAAITRRGSGTYYADSVKGRFTSSRDNAKNTVYLQMNSLKPEDTAVYYCAAAVGHGVDYWGQGTQVTVSS | high polyreactivity |
| QVQLVESGGGLVQAGGSLRLSCAASGSIFIVYAMGWYRQAPGKERELVATITSGGSTNYADSVKGRFTISRDNAKNTVYVQMNSLKPEVTAVYYCAAESYWGSGVVPGYDYWGQGTQVTVSS | low polyreactivity |
| QVQLVESGGGLVQAGGRLRLSCAASGSIFSYNAMGWYRQAPGKEREVVATISWSGGSTYYADSVKGPFTISRDYAKNTVFLQMNSLKPEDTGGYSCAARKYGQRYRRDYWGQGTQVTVSS | low polyreactivity |
| QVQLVESGGGLVQAGGSLRLSCAASGFTIHYYVMVWYRQAPGKERELVAAIRRGGSTSYADSVKGRFTISRDNAKNTVYLQMNSLKPEDTAVYYCAASYVSGERYDYWGQGTQVTVSS | low polyreactivity |
| QDQLVESGGGLVQAGGSLRLSCAASGSIFWLYAMGWYRQAHGKERELVASITGGGSTNYADSVKGRFTISRDNAKNTVYLQMNSLKPEDTAVYYCAKRYYRTGRKRTGLDYWGQGTQVTVSS | high polyreactivity |
| QVQLVESGGGLVQAGGSLRLSCAASGISFWDYAMGWYRQAPGKERELVAAISSGGSTYYADSVKGRFTISRDNAKNTVYLQMNSLKPEDTAVFYCNAEQRYYRKVKGNYWGQGTQVSVSS | high polyreactivity |
